Measured values taken from patent publication US20100047893.

Assays:
[1] = molecular target: mixed bovine histones (Sigma)

B1: GST-TbPRMT7 (protein)
chain: MPPKQHRHQKKDKNDNALQNTIGFVPPGATLASVSGYRPPDAFVNRIDRNIPVPARLRHTPVSLIEAVNDFHYAMMNDEERNNFYYEVLKKHVTPETGVLEIGAGSGLLSLMAAKLGAKWVVAVEGSEELAKLARENIRANNMEHQVKVLHMMSTELKSKHLPEPPDVLLSEIFGTMMLGESALDYVVDVRNRLLKPTTKIIPQFGTQYAVPIECDALHRISSVSGWRDLDLKHMMTLQDTVSIVFAKHYGIRMNSVNFRRLSDPIELFRVDFSSSNRNDIPRRKHFDVVAKESGTAHAMLFYWKVTDDEFVMSTDPEDTVNNFPRDMQWGQALQLLDASNGPLPTPVVFTEGKNYNFECNFSGDRVILHMQLCPESGNGEMTECEGKTT
methylarginine derivatives by cation exchange chromatography after 3H-AdoMet reaction [1]: only monomethylargnine produced with either histone (B) or RBP16 (C) substrate
methylarginine derivatives by cation exchange chromatography after 3H-AdoMet reaction (RBP16): only monomethylargnine produced with either histone (B) or RBP16 (C) substrate
protein arginine methyltransferase activity (3H-AdoMet, SDS-PAGE, fluorography) (histone H3, P68432): the recombinant enzyme possesses protein arginine methyltransferase activity and utilizes histone H3 as a substrate

B2: TbPRMT7-ProtC (protein)
chain: MPPKQHRHQKKDKNDNALQNTIGFVPPGATLASVSGYRPPDAFVNRIDRNIPVPARLRHTPVSLIEAVNDFHYAMMNDEERNNFYYEVLKKHVTPETGVLEIGAGSGLLSLMAAKLGAKWVVAVEGSEELAKLARENIRANNMEHQVKVLHMMSTELKSKHLPEPPDVLLSEIFGTMMLGESALDYVVDVRNRLLKPTTKIIPQFGTQYAVPIECDALHRISSVSGWRDLDLKHMMTLQDTVSIVFAKHYGIRMNSVNFRRLSDPIELFRVDFSSSNRNDIPRRKHFDVVAKESGTAHAMLFYWKVTDDEFVMSTDPEDTVNNFPRDMQWGQALQLLDASNGPLPTPVVFTEGKNYNFECNFSGDRVILHMQLCPESGNGEMTECEGKTT
in vitro methylation (3H-AdoMet, fluorography) [1]: TbPRMT7-ProtC strongly methylated both histones and RBP16
in vitro methylation (3H-AdoMet, fluorography) (RBP16): TbPRMT7-ProtC strongly methylated both histones and RBP16

B3: recombinant TbPRMT7 (protein)
chain: MPPKQHRHQKKDKNDNALQNTIGFVPPGATLASVSGYRPPDAFVNRIDRNIPVPARLRHTPVSLIEAVNDFHYAMMNDEERNNFYYEVLKKHVTPETGVLEIGAGSGLLSLMAAKLGAKWVVAVEGSEELAKLARENIRANNMEHQVKVLHMMSTELKSKHLPEPPDVLLSEIFGTMMLGESALDYVVDVRNRLLKPTTKIIPQFGTQYAVPIECDALHRISSVSGWRDLDLKHMMTLQDTVSIVFAKHYGIRMNSVNFRRLSDPIELFRVDFSSSNRNDIPRRKHFDVVAKESGTAHAMLFYWKVTDDEFVMSTDPEDTVNNFPRDMQWGQALQLLDASNGPLPTPVVFTEGKNYNFECNFSGDRVILHMQLCPESGNGEMTECEGKTT
in vitro methylation [1]: Results indicate methylation occurred
in vitro methylation (RBP16): Results indicate methylation occurred
in vitro methylation (3H-AdoMet, SDS-PAGE, fluorography) (GST): Of the eight substrates tested, only GST was not methylated
